Data reported in patent publication US20250243260A1 (ALPINE IMMUNE SCIENCES, published 2025).

Columns and labels:
[1] = molecular target: human CD28 (endogenously expressed on primary human T cells) (human) (UniProt P10747); assay: flow cytometry, primary human T cells
human CTLA-4 (human) = human CTLA-4 (human) (UniProt P16410); assay: flow cytometry on CHO/CTLA-4 cells
human CD28 on cells [2] = molecular target: T1, human CD28 on cells (human, UniProt P10747 19-220); assay: flow cytometry, primary human T cells
Procedure: Binding affinity to CD28 was determined using primary human T cells which endogenously express CD28. Binding to PD-L1 was determined using SCC152 cells transduced with human PD-L1. Binding to CTLA-4 was measured using Chinese hamster ovary (CHO) cells stably transduced to express human CTLA-4.
For staining and analysis by flow cytometry, 75,000 human T cells, SCC152/PD-L1 cells, or CHO/CTLA-4 cells were plated in 96-well round-bottom plates. Cells were spun down and resuspended in staining buffer (PBS (phosphate buffered saline), 1% BSA (bovine serum albumin), 1 mM EDTA, and 0.1% sodium azide) for 20 minutes to block non-specific binding. Afterwards, cells were centrifuged, stain buffer aspirated, and then resuspended in 50 μL of a 1:5 serial dilution of each CD80-Fc candidate variant starting at 100 nM ending at 0.8 nM. Primary staining was performed on ice for 60 minutes, before washing cells in […] staining buffer three times. PE-conjugated anti-human Fc (Jackson ImmunoResearch, USA) was diluted 1:250 in 50 μL staining buffer and added to cells and incubated another 30 minutes at 4° C. Cells were washed two times in 150 μL stain buffer and then fixed in 2% formaldehyde/PBS for 5 minutes at room temperature. Samples were analyzed CytoFLEX LX flow cytometer (Beckman Coulter, USA). Median Fluorescence Intensity (MFI) was calculated for each cell type using the CytExpert software from Beckman Coulter.
Binding assays were carried out to assess the specificity and affinity of multivalent proteins to cell-expressed CTLA-4, CD28, and PD-L1 counter structures.

human CD28 on cells [3] = molecular target: T1, human CD28 on cells; assay: cell-based or functional assay

Sequence of human CTLA-4 (human) (P16410 36-223): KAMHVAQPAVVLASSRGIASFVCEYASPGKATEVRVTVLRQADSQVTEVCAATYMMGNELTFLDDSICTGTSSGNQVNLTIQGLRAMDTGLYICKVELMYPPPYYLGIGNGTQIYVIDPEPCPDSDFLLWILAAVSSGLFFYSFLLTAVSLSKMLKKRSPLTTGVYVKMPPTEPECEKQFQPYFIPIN

Substance | MFI (anti-human Fc) at 0.8 nM [1] [MFI] | MFI (anti-human Fc) at 4 nM [1] [MFI] | MFI (anti-human Fc) at 20 nM [1] [MFI] | MFI (anti-human Fc) at 100 nM [1] [MFI] | other results
CD80_223-Fc, variant CD80 IgV-Fc E10S/V68M/Y87P (Fc fusion) | 190 | 195 | 223 | 318 | fold change of MFI vs WT CD80 at 20 nM [1]: 1.2 fold
CD80_168 variant CD80 IgV-Fc (K9N, E10G, N63S, L85E) (Fc fusion) | – | – | – | – | MFI at 0.8 nM (human CTLA-4 (human)): 415 MFI; MFI at 4 nM (human CTLA-4 (human)): 631 MFI; MFI at 20 nM (human CTLA-4 (human)): 830 MFI; MFI at 100 nM (human CTLA-4 (human)): 3160 MFI; fold change vs WT CD80 at 20 nM (human CTLA-4 (human)): 0 fold
WT CD80 ECD-Fc IgG4 (Fc fusion) | – | – | – | – | Anti-Human Fc (MFI) at 0.8 nM (human CD28 on cells [2]): 178 MFI; Anti-Human Fc (MFI) at 4 nM (human CD28 on cells [2]): 168 MFI; Anti-Human Fc (MFI) at 20 nM (human CD28 on cells [2]): 180 MFI; Anti-Human Fc (MFI) at 100 nM (human CD28 on cells [2]): 184 MFI; Rel. Luminescence Units (RLU) at 2 nM, K562/OKT3/PD-L1 + Jurkat/IL-2 reporter (human CD28 on cells [3]): 2830 RLU; Rel. Luminescence Units (RLU) at 10 nM, K562/OKT3/PD-L1 + Jurkat/IL-2 reporter (human CD28 on cells [3]): 2660 RLU; Rel. Luminescence Units (RLU) at 50 nM, K562/OKT3/PD-L1 + Jurkat/IL-2 reporter (human CD28 on cells [3]): 2440 RLU; Rel. Luminescence Units (RLU) at 250 nM, K562/OKT3/PD-L1 + Jurkat/IL-2 reporter (human CD28 on cells [3]): 2640 RLU
CD80_201-Fc, variant CD80 IgV-Fc E10G/H18Y/T28Y/M47W/T62S (Fc fusion) | 199 | 201 | 254 | – | –

Second part, led by results:

MFI (anti-human Fc) at 0.8 nM [1] [MFI] | MFI (anti-human Fc) at 4 nM [1] [MFI] | MFI (anti-human Fc) at 20 nM [1] [MFI] | MFI (anti-human Fc) at 100 nM [1] [MFI] | Substance | other results
– | 212 | – | 313 | CD80_181-Fc, variant CD80 IgV-Fc K9S/E10R/V11Y/M47L/A71G (Fc fusion) | –
245 | 247 | 274 | 301 | CD80_196-Fc, variant CD80 IgV-Fc V11Y/M42W/E52K/T62A/L85E (Fc fusion) | fold change of MFI vs WT CD80 at 20 nM [1]: 1.5 fold
178 | 168 | 180 | 184 | wild-type CD80 ECD-Fc (unmodified CD80 ECD fused to IgG4 Fc) (Fc fusion) | –
